Consider one substance from patent publication US20050079613.

In this data set the test system is three human E2 enzymes UbCH2, UbCH3 and UbCH5a (at least one of these three enzymes).

As for “GST fusion of the MARCH-VIII RING-CH domain”, the “formation of high-molecular weight ubiquitin complexes in vitro (anti-ubiquitin blot)” value is reported as “The RiNG-CH-GST fusion proteins of all four MARCH-proteins tested were able to catalyze the formation of high-molecular weight molecular ubiquitin complexes in the presence of at least one of these three enzymes”.
